According to patent US20210024625A1 (published 2021):

T1: PfRH5 from Plasmodium falciparum strain 3D7 (Plasmodium falciparum, UniProt Q8IFM5 25-526)
T1 sequence: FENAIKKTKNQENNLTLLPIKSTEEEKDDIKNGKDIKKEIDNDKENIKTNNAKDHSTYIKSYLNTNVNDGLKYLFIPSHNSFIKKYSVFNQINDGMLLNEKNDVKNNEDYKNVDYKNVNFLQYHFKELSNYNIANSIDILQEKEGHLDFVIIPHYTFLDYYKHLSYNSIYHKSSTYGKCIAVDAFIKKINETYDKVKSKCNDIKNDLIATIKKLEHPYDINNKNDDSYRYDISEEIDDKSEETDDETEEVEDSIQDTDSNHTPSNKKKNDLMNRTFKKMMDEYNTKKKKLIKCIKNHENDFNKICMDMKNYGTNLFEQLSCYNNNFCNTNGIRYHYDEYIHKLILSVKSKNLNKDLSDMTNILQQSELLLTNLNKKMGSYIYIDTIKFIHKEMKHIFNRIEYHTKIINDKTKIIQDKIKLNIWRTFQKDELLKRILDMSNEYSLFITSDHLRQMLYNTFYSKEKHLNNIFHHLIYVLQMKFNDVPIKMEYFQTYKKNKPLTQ

B1: H1H29138P (antibody, V domains shown)
VH: QVQLVESGGGVVQPGRSLRLSCAASGFTFSTYGMHWVRQAPGKGLEWVAVIWYDGTNKYYADSVKGRFTISRDNSKNTLYLQMISLRAEDTAVYYCARDPSGGDHYYYYGMDVWGQGTTVTVSS
VL: DIQMTQSPSSLSASVGDRITITCQASQDISNYLNWYQQKPGKAPNLLISDASDLETGVPSRFSGSGSGTDFTFTISSLQPEDFATYYCQQYDNIPITFGQGTRLEIKR
B2: H1H29141P (antibody, V domains shown)
VH: QVQLVESGGGVVQPGRSLRLSCAASGFTFSSYGMHWVRQAPGKGLEWVTFISFDERNKYYADSVKGRFTISRDNSKNTLYLQMNSLRAEDTAMYYCASEVGYSFGHDAFDIWGQGTMVTVSS
VL: not shown
B3: H1H29146P2 (antibody, V domains shown)
VH: EVQLVESGGGLVQPGGSLQLSCAASGFAFSDSAIYWVRQASGKGLEWVGRIRNKANRFATAYGASVKGRFSIHRDDSKNTAYLQMNSLKTEDTAVYYCARHGHDTLTEGYGMDVWGQGTTVTVSS
VL: not shown
B4: H1H29149P2 (antibody, V domains shown)
VH: QVQLQESGPGLVKPSQTLSLTCTVSGGSISSGGYYWNWIRQHPGKGLEWIGYIYYSGSTYYNPSLKSRVTISVDTSKNQFSLKLGSVTAADTAVYYCARAPPYNWFDYWGQGTLVTVSS
VL: not shown
B5: H1H29151P2 (antibody, V domains shown)
VH: QVQLVESGGGLVKPGGSLRLSCAASGFTFSDYYMNWVRQAPGKGLEWVSYISNSGNTQYYADSVKGRFTISRDNAKNSLFLQMNSLRAEDTAVYYCTREGLEYSSSEPFDYWGQGTLVTVSS
VL: not shown
B6: H1H29163P2 (antibody, V domains shown)
VH: QVQLVQSGAEVKKPGASVKVSCKTSGYTFTAYYIHWVRQAPGQGLEWMGWINPNNGDTNYALRFQGRVTMTRDMSINTAYMELRGLRSDDTAVYYCARDDLAAAGIGWFDSWGQGTLVTVSS
VL: not shown
B7: H1H29166P2 (antibody, V domains shown)
VH: EVQLVESGGGLLQPGRSLRLSCVASGFTFDDYAMHWVRQAPGKGLEWVSGISWNSESIGYADSVRGRFTISRDNAKNSLYLQMNSLRAEDTALYYCAKAPYSGTYFEYFRHWGQGTLVTVSS
VL: not shown
B8: H1H29192P2 (antibody, V domains shown)
VH: QVQLVQSGAEVKKPGASVRVSCMASGYTFTGYYMHWVRQAPGQGLEWMGWINPNSGGTKYAQKFQGRVTMTRDTSISTAYMELSRLRSDDTAVYYCAREEVDDFWSGYLDYWGQGTLVTVSS
VL: not shown
B9: H1H29196P2 (antibody, V domains shown)
VH: EVQLVESGGDLVQPGGSLRLSCAASGFAVNGDYFSWVRQAPGKGLEWISVIYSSGNTYYADSVKGRFTISRHNSKNTLYLQMSSLRPEDTAVYYCARDFPPMSGADYWGQGTLVTVSS
VL: not shown
B10: H1H29198P2 (antibody, V domains shown)
VH: QVQLVQSGAEVKKPGASVKVSCKVSGYTLTELSMHWVRQAPGKGLEWMGGFDPEHGKIIYAQKFQGRVTMTEDTSTDTAYMELSSLRSEDTAVYYCATFYNWNSYYFGMDVWGHGTTVTVSS
VL: not shown
B11: H1H29207P2 (antibody, V domains shown)
VH: EVQLVESGGGLVQPGGSLRLSCAASGFTFSSYAMNWVRQAPGKGLEWVSAVSGSADITNYADSVKGRFTISRDNSKHTLYLQMNSLRAEDTAVYYCAKDKVYNWNYGIYYGMDVWGQGTTVTVSS
VL: not shown
B12: H1H29209P2 (antibody, V domains shown)
VH: QLQLQESGPGLVKPSETLSLTCTVSGGSISSRSHYWGWIRQPPGKGLEWIGSIYYSGSTYYNPSLKSRVTISVDTSKNQFSLKLSSVTAADTAVYYCARLGWYAEEAFEIWGQGTMVTVSS
VL: not shown
B13: H1H29214P2 (antibody, V domains shown)
VH: QLQLQESGPGLVKPSETLSLTCTVSGGSISSSSYYWGWIRQPPGKGLEWIGSIYYSGSTYYNPSLKSRVTISVDTSKNQFSLKLSSVTAADTAVYYCARQGRWERENFDYWGQGTLVTVSS
VL: not shown
B14: H1H29215P2 (antibody, V domains shown)
VH: QVQLQQWGAGLLKPSETLSLTCAVSDESFSDYYWTWIRQPPGKGLEWIGEITHSGSTHYNPSLKSRVTLSVDTSKNHFSLSLNSVTAADTAIYYCARGGDYGGLLDYWGQGTLVTVSS
VL: not shown
B15: H1H29125P (antibody, V domains shown)
VH: QVQLVESGGGVVQPGRSLRLSCAASGFTFSSYGMHWVRQAPGKGLEWMAVISYDGSNKYYADSVKGRFTISRDNSKNTLFLQMNSLRPEDTAVYYCAQDGSSAIYYFYGMDVWGQGTTVTVSS
VL: DIQMTQSPSSLSASIGDRVTITCRASQDINNYLAWFQQKPGKAPKSLIYAASSLQSGVPSKFSGSGSGTDFTLTISSLQPEDFATYYCLQYNSYHPTFGQGTKLEIKR

How the values were obtained:
Experiment in all cases: cell-based or functional assay
[1] = molecular target: PfRH5 from Plasmodium falciparum strain D10 (Plasmodium falciparum)
[2] = molecular target: PfRH5 from Plasmodium falciparum strain Dd2 (Plasmodium falciparum)
[3] = molecular target: PfRH5 from Plasmodium falciparum strain 7G8 (Plasmodium falciparum)
[4] = molecular target: PfRH5 from Plasmodium falciparum strain W2-mef (Plasmodium falciparum)
[5] = molecular target: T1, PfRH5 from Plasmodium falciparum strain …
[6] = molecular target: PfRH5 from Plasmodium falciparum strain HB3 (Plasmodium falciparum)
[7] = molecular target: PfRH5 from Plasmodium falciparum strain FCR-1/FVO (Plasmodium falciparum)
[8] = molecular target: PfRH5 from Plasmodium falciparum strain Cam3.II (Plasmodium falciparum)
[9] = molecular target: PfRH5 from Plasmodium falciparum strain RF7 (Plasmodium falciparum)

Row | Binder | Max growth inhibition (%) [1] [%] | Max growth inhibition (%) [2] [%] | Max growth inhibition (%) [3] [%] | Max growth inhibition (%) [4] [%] | Max growth inhibition (%) [5] [%] | Max growth inhibition (%) [6] [%] | Max growth inhibition (%) [7] [%] | Max growth inhibition (%) [8] [%] | Max growth inhibition (%) [9] [%]
1 | B1 | 57.1 | 74.4 | 57.4 | 66.4 | 58.5 | 51.4 | 84.1 | 48.7 | 51.4
2 | B2 | 50 | 65.3 | 54.6 | 56.2 | 48.2 | 50 | 74.2 | 49.3 | 32.1
3 | B3 | 10.8 | – | 19.1 | 0.57 | 8.57 | 33.9 | 7.32 | 8.18 | 5.97
4 | B4 | 66 | – | – | 42.8 | 44.1 | 40 | 58 | 36.2 | 14.7
5 | B5 | 38.7 | 58 | 47.5 | 53.9 | 35.5 | 31.7 | 53.7 | 26.3 | 18.3
6 | B6 | – | 61.2 | 62.6 | 63.7 | 55.6 | 56.5 | 64.5 | 46.7 | 10.7
7 | B7 | 70.9 | 60 | 54.6 | 61.9 | 53.1 | 54.9 | 69.7 | 55.9 | 19.4
8 | B8 | 8.7 | -15.2 | 12.4 | 4.35 | – | 5.62 | 15.1 | -3.38 | -7.69
9 | B9 | 14.3 | -1.65 | 23.4 | 17 | – | 26.8 | 21.9 | 6.09 | 3.78
10 | B10 | 4.38 | 10.1 | 5.31 | -3.61 | – | 15.5 | 11.1 | 14.7 | 1.53
11 | B11 | 73.9 | 61.3 | 58.7 | 65.2 | – | 49.3 | 69.2 | 45.3 | 31.1
12 | B12 | 72.7 | 38.1 | 49.9 | 39.6 | – | 52.4 | 19.2 | 47.3 | 11.9
13 | B13 | 76.5 | 47.2 | 56.7 | 52.7 | – | 59.1 | 13.1 | 46.7 | 11.2
14 | B14 | 35.8 | 22.8 | 33.2 | 37.2 | – | 30.1 | 54 | 27.2 | 11.3
15 | B15 | 75.4 | 51.4 | 47 | 64.6 | 51.1 | – | 67.6 | 42.7 | 21
